The series is described as follows: label from the status in PepcDB records.
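Note: failed if final PepcDB status was selected cloned or expressed and not failed if soluble or beyond.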

As for “MKPNFKNIDIYAGFQPQNGMEWQKENGITADWKTPEHINVKPVYTKEDLEGMEHLNYVAGIPPYLRGPYSMMYTFRPWTIRQYAGFSTAEESNAFYRRNLASGQKGLSVAFDLPTHRGYDPDHERVVGDVGKAGVSICSLENMKVLFDGIPLNKMSVSMTMNGAVLPIMAFYINAGLEQGAKLEEMAGTIQNDILKEFMVRNTYIYPPAFSMKIISDIFEYTSQKMPKFNSISISGYHMQEAGATADIELAYTLADGLEYLRAGVAAGIDIDAFAPRLSFFWAIGMNHFMEIAKMRAARMLWAKIVKQFNPKNPKSLALRTHSQTSGWSLTEQDPFNNVGRTCIEAMAAALGHTQSLHTNALDEAIALPTDFSARIARNTQIYIQEETYVCKNVDPWGGSYYVESLTNELAHKAWEHIQEIESLGGMAKAIETGVPKMRIEEAAARTQARIDSGAQTIVGTNKYRLEKEDPIDILEVDNTAVRLEQIENLKRLKEGRNQAEVDKALAAITECVKTGKGNLLELAVEAAHVRATLGEISDACETIVGRYKAVIRTISGVYSSESKKDTDFARACELTEEFAKKEGRRPRIMIAKMGQDGHDRGAKVVATGYADCGFDVDMGPLFQTPAEAARDAVENDVHVVGVSSLAAGHKTLIPQIIEELKKLGREDILVIAGGVIPAQDYDFLYKAGVVAIFGPGTSVAKAAVQIMDILLDEEE”, the protein production result was “failed”.

As for “MKPRDTRVKPGSRVSLADWHTDGDAFVGKDKAASMARLDDDRVRLEELQELLYAEGKHRLLVVLQAMDTAGKDSTIRHVFRGVDPLGVRVANFGVPSTHELRHDYLWRVHPHVPASGEIAIFNRSHYEDVLVPRVNGAIGHAECERRYRQINDFERMLSETGTTIRKFYLHISKDEQKKRLEARRDTPKKRWKFQPGDLAVRAQWDDYRAAYDALLSATSTRHAPWHVVPADDKLARNLIVSALLIEALEGLDMRYPEPVAGVAGTPII”, the protein production entry is “not failed”.

Turning to “MKPRKKSVQPIGLKDITIVDDAKMKKAITAAALGNAMEWFDFGVYGFVAYALGKVFFPNADPSVQMIAALATFSVPFLIRPLGGLFFGALGDRFGRQKILAATIVIMSLSTFAIGLIPSYASIGIWAPILLLLAKMAQGFSVGGEYTGASIFVAEYAPDRKRGFLGSWLDFGSIAGFVLGAGVVVLISTVLGEEKFLDWGWRLPFFLALPLGIIGLYLRHALEETPAFQQHVDKLEQGDREGLASGPKVSFKEVATQHWRSLVTCIGVVIATNVTYYMLLTYMPSYLSHNLHYSEDHGVLIIIAIMVGMLFVQPIIGLLSDKFGRRPFIIVGSVGLLALAIPAFMLINSGVLGLIFAGLLIIAVLLNFFIGVMASTLPAMFPTHIRYSALASAFNISVLIAGLTPTLAAWLVETTNDLYMPAYYLMVIAAVGLVTGLTMKETANKPLRGAAPAASDIEEARELLQEHHDNIEQKIEDIDAQIAELEAKREKLALQHPRIE”, the protein production entry was “not failed”.

Turning to “MKPTLFLLAAGMGSRYGGLKQLDGLGPNGETIMDYSIYDAINAGFGKLVFVIRKDFEQDFREKIISKYEGHIPCELVFQSIDDLPEGFTCPADRTKPWGTNHAVMMGADVISEPFAVINCDDFYGRDSFQVMGKFLSALPENSKNVYSMVGFRVGNTLSESGTVSRGICSTDANNLLTSVVERTKIQRLDGEVKYIDDNGEWTATPDTTPVSMNFWGFTPDYFAYSEEFFKTFLSDPKNMENLKSEFFIPLMVDKLINDGTATVEVLDTTSKWFGVTYPEDRQSVVDKIQALVDAGEYPAKLFLEHHHHHH”, the protein production entry is listed as “failed”.

Take “MKPVIQTFLRAAAVAGLALLAGCAGVSTTQSGAIGVDRTQYMSSLVPEQALVQEAGQQYAEIVQEARAKGLLDRDPAQLSRVRAISQRLIAQTGVFRADAANWPWEVHVLSVDEVNAWCMPGGKIAVYTGLLAHIKPTDDELAAVLGHEIAHALREHARERVSQQMATSIGLSVLSMATGSPGASDLGGKLTEVMFTLPNSRTHETEADRMGVELAARAGFDPRAAVTLWQKMGAADGNAPPEFLSTHPSASTRIGELQQALQKVLPLYEQARGQAAKLEHHHHHH”: the protein production entry was “not failed”.

Take “MKQFLITGGTGMVGSQLVNKLKNRDVHITILTRSDKQSDDPKISYVNWSKDGWMSQVPDIDVVVNLAGATLNKRWTPSYKQLIMTSRIQSTQSLVDLFSQREHKPEVLFNASAMGYYPPSLYHTYTEKYQTHPFDFLSDVVYQWERFAKRFESFGTRVVLGRFSMILSNDGGALQTMKLPYKFFVGGKLGSGFQWYSWIHINDLVRAILFTIDNPNAKGPFNMAAPIAERQNLFGYTLARVMHRPHETWVPSFLMRLALGEMSTVVLDTQKVLPNKLDALGFTFNYSNLKIAFEDLIDALEHHHHHH”: the protein production result is given as “failed”.

For “MKQILTYLLFIWILLPLKAEEKIYTVDNIPKVHLQNKMQYVCNPAGILSQQACDEIDAMLYALEQQTGIETVVAIVPSIGDKDCFEFSHQLLNQWGVGKKGKDNGLVILLVTDQRCIQFYTGYGLEGILPDAICKRIQMQEMIPYLKKGEWNQGMLAGVKAVCQRLDGSMVNDDEGRGEEGISVSMLLVVILGFITIAGVVGTLAVRASTRCPKCGKHQLQRSSTKLISNRNGVKTEDIIYTCRNCGHTVVRRQQSYDDNYRGRGGGGPFIGGFGGGSFGSGGGGGFSGGSFGGGSGGGGGAGSRFLEHHHHHH”, the protein production result is on record as “failed”.

“MKQIRLLAQYYVDLMVKLGLVRFSLLLASVLVLLAMVVQMAVTLLLSGEVENIDVVRSIFFGLLITPWAVYFLSVVVEQLEESRQRLSKLVAKLEEMRHRDLELNVQLQENIAQLNQEIADRIKAEEARVLVMSRLKEEMSRREQAQIELEQQSALLRSFLDASPDLVYYRNEEKEFSGCNRAMELLVGKSQKQLIGLTPQDVYAPDIAEKVMETDEKVFRHNVSLTYEQWLVYPDGRKACFELRKVPFYDRMGKRHGLMGFGRDITERKRYQDALENASRDKTTFISTISHELRTPLNGIVGLSRILLDTQLDLEQQKYLKTIHVSAITLGNIFNDVIEMDKQERRKVQLDNQPIDFTGFLVDLENLGGLLAEQKGLKLIMDQHQPLPQKVITDGTRLRQILWNLLSNAVKFTPKGEKGEKGEIVVRVWHEKGDRLRFEVEDSGMGIPADELEKIFAMYYQVKDQHGGKPATGSGIGLAVSKRLAQNMGGDIHVSSSQGKGSCFTLTVIAPSADEAGSGLEDDDDLPLPALHVLLVEDIELNVVVARSVLEKLGNSVDVAMTGQEALDMFDPDEFDLVLLDIQLPDMTGLDVARQLRSRYGKRSLPPLVALTANVLKDKREYLDAGMDDVLSKPLSVPALTAVIKQHWDTHTVWTEESVVEEGDEMAKVKEDLLDIPMLEQYLDLVGPKLIHQSLEMFEQMMPGYLAILDSNMTARDQKGITEEGHKIKGAAGSVGLRHLQQIAQQIQTSSLPAWWDNVQEWIDELKHDWRHDVQVLRDWVAKAEKES”: the protein production entry was “failed”.

“MKQIRMLAQYYVDLMMKLGLVRFSMLLALALVVLAIVVQMAVTMVLHGQVESIDVIRSIFFGLLITPWAVYFLSVVVEQLEESRQRLSRLVDKLEEMRERDLKLNVQLKDNIAQLNQEIGEREKAEAERETTLEQLKIEMKEREETQIQLEQQSSFLRSFLDASPDLVFYRNEDKEFSGCNRAMELLTGKSEKQLIHLKPQDVYSEEAAEKVLETDEKVFRHNVSLTYEQWLDYPDGRKACFEIRKVPYYDRVGKRRGLMGFGRDITERKRYQDALERASRDKTTFISTISHELRTPLNGIVGLSRILLDTELTSEQEKYLKTIHVSAVTLGNIFNDIIDMDKMERRKVQLDNQPVDFTSFLADLENLSGLQAQQKGLRFVLEPSLPLPHKVITDGTRLRQILWNLISNAVKFTPQGGGVNVRVRYDEGDILHFEVEDSGIGIPEAEQDKIFAMYYQVKDSHGGKPATGTGIGLAVSRRLARNMGGDISVTSQPGKGATFTLTVHAPAIAEEVEDTLAEDDMPLPALNVLLVEDIELNVIVARSVLEKLGNSVDVAMTGKAALEMFEPGEYDLVLLDIQLPDMTGLDISRELKQRFAADELPPLVALTANVLKNKKEYLDAGMDDVLSKPLSVPALTAMIKKFWDAPDEEAQEAPAADLHKADAVLDTDMLEQYIELVGPKLINDGLAVFEKMMPGYMSVLESNLTARDQKGIVEEGHKIKGAAGSIGLRHIQQLGQQIQTPDLPAWSDNVAEWVEEMKSEWQNDVAVLKAWVAKASKK”: the protein production result is “failed”.

Regarding “MKQKNAYNRLTNHYDDVLTGRKWWSWLYMHCLWKTDDNIIAGSVLDMIPGNFEGRILDVPVGTAIFTYDKYRRMPQAEIVGLDYSQEMLDIAAMRFSAEQITNVSLRQGDVGSLPFPDAAFDLVLSMNGFHVFPDKDRAFAETFRVLRGGGLFCGCFYVKGERKPADWFVRKFLDKKGLFRPPHYTREEAIEKLRSLYGDNVEIQDARSLLVFKCTKPRLEHHHHHH”, the protein production entry is “not failed”.

For the sequence “MKQRVITAVIALILFIPIVLAGGLWMDWLTVLFAAVGISEIFLMKKQILVSFDFLLALLATLTWTVPDSFFKVFPSNITKLGVFYGIIMLFLTWTVLSKNKTTFDDVGVYILAALYIGIGFHYMAAIRAYPQNGLALLGYVFVVVWSTDIGAYMIGRKIGKHKLWPVISPNKTWEGSIGAVICALICSAIYLAILSSFNITFGVSELSMVVLAFFLSIVGQMGDLVESAYKRFYGVKDSGKILPGHGGILDRFDSMLFVLPVVAAILGIVH”, the protein production result is listed as “failed”.

In the case of “MKQVPDVNKIKFDPETKRIVRKDVPLMMNSFDKKAVEEAIRISERHGWETCVATMGPPQAVEVINEALRMGIERGYLITDPSLANSDTLITSRVLAAFALRYGPDLVLMGKYSLDGETSQVPAEVSALMGWPYVPSVSKIMISDHLELEQELENGIYTCSAPLPCVLSLSEKINRARAIKPDTPQMYDRIVQIDTKWLGLDLDGGRDSPTAVIGTEQVNSNRSPVFIDPGADMYRQIMEIIRVSR”, the protein production result is “failed”.

As to “MKQVVLNLKDGDLTVEEVPIPTIKGSGVLVRNHYSVISAGTESGVVDLADKSLIGKARARPDLAMKVINKAKQDGPISAFQQAMGRLEKREPLGYSSAGTVISVSEDIKDIKPGDRVACAGAGYANHADVVFVPRNLCAKVPENVDFKNACFTTVGSIAMQGVRNADVKIGENIVVIGLGLIGLITLQILKASGCRVFGVDLDESKVNLARELGADLSYSRNSPNLEERIKQFSRGIGADSTIITAATRSNDPVDFAGKITRERGKVVIVGLVGMDIPREEYYNKELEMRISRSYGPGRYDRNYEEYGQDYPAPYVRWTENRNMQAFLDLISMKKISMEPIITHEYEIEQAPEAYNIIKERKPYLGLVLKYDTDKRIEDKVILKSPGPVSAISESFSPVLGVIGAGIFATSILLPNLSKIKGVKLKGLSAASGLSCESVAKKYGFEYCTSDYHKILSDPEINCVSIVTRNSLHASLVIEALKNKKNVLVEKPLALNEEELNAIIEAKKENGGFIMVGFNRRYSELGVKLKDFFKNRSQSMVAYYRVNAESIPKDHWVYDESEGGSRIITECCHFIDFMQFIIGSSPVEVYARKIESQVKTPEDNENVSITIAFEDGSIGTLIYTTHGDSSVSKEHAEFFADGMVGAITDFKQLKLVKDGKCTQINKRLITEKGHKNELENFFKMVKQGPSKYSFEENVLTTVSTLKAAEHVMSGGPVKLI”, the protein production entry is “failed”.

For the sequence “MKRATLPRGRVAGLTAGSLAAVGLALALTLGGVSVVPSGFDGIEDLPLPGGADLGDHPYTVTAELQDVLSLVPHSAVRVNDVAVGRITGIELGEDDWSARVTMEINGEVRLPADATARLEQSSLLGEKYVQLVAPAKETGTGRLTDGSVIPLARTSRNTEVEEVFGALSLLLNGGGVNQLKTITRELNAALGGREPEVRSMLKRVNTLVGDLDDHRGDITDALDAVNRLSSTLATRKDDVGTVLTDLSPGLKTLERQRGSLLTMLRSLDTLSGVAVSTINASKDDMIADLKAVAPTLRALADAGTDLPDSLQVLLTYPFTDEVLRGVKGDYLNTYLSMVAVPGTEVIPPLVDGDTPGPTASATAQDGPDPAAKNPAAKNPISRKRSSGQRGSASPLPLPSVSGAGPASGGEHGLEHHHHHH”, the protein production entry is listed as “not failed”.

Take “MKRCRRRTQAGIRINLCVQGREGLSSPTPIGPIVTSTQPDSRASSLTDDALQWTRLEVAFTAGIVGCLLFATWQLGDLLARDWLAGWVGESELREDLVYYGVAFTAALAALGGTTRSLAHAGRFRRTVGRSLLWYGALLLISASGMGAIEYLPEVAAGLFGAGVLIAAVYVLQQRYFTRERIRRRRLRNDNCPQCGSDLRPEAHHCSQCGRRMGEDCPECGGYLGRSDRYCADCGRERAEGAP”: the protein production result is “failed”.

(Values after a protein production outcome set (Wang et al. 2014).)
